Assay results as given in publication PMC11346174 (Investigative Ophthalmology & Visual Science, 2024).

T1: PEDF-IgG Fc fusion protein (PEDF-Fc) (human, UniProt P36955 20-418)
T1 sequence (looked up): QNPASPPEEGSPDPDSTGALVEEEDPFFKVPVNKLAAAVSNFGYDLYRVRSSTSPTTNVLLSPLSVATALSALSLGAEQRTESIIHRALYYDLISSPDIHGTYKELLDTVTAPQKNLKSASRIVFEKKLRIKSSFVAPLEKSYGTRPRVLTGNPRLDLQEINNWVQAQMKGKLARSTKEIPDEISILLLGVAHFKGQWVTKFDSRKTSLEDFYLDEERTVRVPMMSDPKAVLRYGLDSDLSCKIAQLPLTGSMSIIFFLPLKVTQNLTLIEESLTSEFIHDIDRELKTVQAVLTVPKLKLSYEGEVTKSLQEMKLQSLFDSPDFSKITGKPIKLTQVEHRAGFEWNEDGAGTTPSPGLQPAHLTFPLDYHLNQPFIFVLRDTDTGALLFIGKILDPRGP


Legend:
[1] = biological target: T1, PEDF-IgG Fc fusion protein (PEDF-Fc); assay: peptide or protein array
[2] = biological target: T1, PEDF-IgG Fc fusion protein (PEDF-Fc); assay: colorimetric cell binding assay

binding result [1]	binding result [2]	Binder
binds	–	YDKAFITVKHRKQQVLETVAGKR [VEGFR-1/Flt-1 amino acid stretch (2), 303-325 (D4), cellulose-bound peptides]
–	binds	AFITVKHRKQQVLETVA [peptide AF10]
binds	–	EKNKRASVRRRIDQSNSHANI [VEGFR-1/Flt-1 amino acid stretch (1), 245-265 (D3), cellulose-bound peptides]
binds	–	IRGEHCNKKAVFSRISKFKSTRN
–	binds	NKRASVRRRIDQSNSHA [peptide AE10]
